Measurements reported in the supplement of paper PMC9112550, “Optimization of the antimicrobial peptide Bac7 by deep mutational scanning” (BMC Biology, 2022).

Test system: Escherichia coli TOP10
Assay: shrunken log2 fold change of peptide-encoding DNA abundance (4.5 h post-induction vs induction); higher = less antimicrobial activity (less host growth inhibition)
Details: time post-induction: 4.5 h; library: site-saturation at positions 5, 18, 19, 20
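Further: peptides expressed intracellularly from a pBAD plasmid library in pooled LB shake-flask culture, induced with 0.3% L-arabinose, DNA abundance read by NGS, three biological replicates, DESeq2 with apeglm shrinkage.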

Sequence	shrunken log2 fold change
RRIRGRPPRLPRPRPRPKFLPRP	0.267
RRIRLRPPRLPRPRPRPRQMPRP	0.208
RRIRSRPPRLPRPRPRPMNWPRP	-0.0283
RRIRCRPPRLPRPRPRPYTYPRP	-0.456
RRIRMRPPRLPRPRPRPGIRPRP	0.253
RRIRTRPPRLPRPRPRPLCIPRP	-0.693
RRIRGRPPRLPRPRPRPAHGPRP	0.204
RRIRGRPPRLPRPRPRPHCAPRP	0.606
RRIRKRPPRLPRPRPRPRRHPRP	0.523
RRIRHRPPRLPRPRPRPWPSPRP	-0.00932
RRIRERPPRLPRPRPRPHLNPRP	-0.434
RRIRPRPPRLPRPRPRPTMTPRP	0.0633
RRIRNRPPRLPRPRPRPHPTPRP	-0.0363
RRIRVRPPRLPRPRPRPPYYPRP	-0.363
RRIRYRPPRLPRPRPRPSCLPRP	-0.56
RRIRTRPPRLPRPRPRPYADPRP	-0.22
RRIRNRPPRLPRPRPRPGDDPRP	0.0116
RRIRIRPPRLPRPRPRPMGLPRP	-0.0686
RRIRYRPPRLPRPRPRPEGDPRP	-0.00396
RRIRFRPPRLPRPRPRPEFHPRP	-0.342
RRIRLRPPRLPRPRPRPWHHPRP	-0.0279
RRIRSRPPRLPRPRPRPCNWPRP	-0.128
RRIRRRPPRLPRPRPRPFSVPRP	0.0458
RRIRPRPPRLPRPRPRPDKYPRP	-0.743
RRIRWRPPRLPRPRPRPREYPRP	0.0698

Sequence	shrunken log2 fold change
RRIRKRPPRLPRPRPRPMANPRP	0.0288
RRIRKRPPRLPRPRPRPIRRPRP	0.0536
RRIRWRPPRLPRPRPRPRIMPRP	0.12
RRIRARPPRLPRPRPRPWTMPRP	-0.0418
RRIRSRPPRLPRPRPRPKKGPRP	0.0379
RRIRQRPPRLPRPRPRPLTEPRP	-0.22
RRIRVRPPRLPRPRPRPPRDPRP	0.303
RRIRPRPPRLPRPRPRPGINPRP	-0.178
RRIRGRPPRLPRPRPRPEWPPRP	1.13
RRIRIRPPRLPRPRPRPNTNPRP	-0.905
RRIRSRPPRLPRPRPRPLRGPRP	0.897
RRIRYRPPRLPRPRPRPQQDPRP	-0.0899
RRIRHRPPRLPRPRPRPYYHPRP	-0.339
RRIRCRPPRLPRPRPRPWEKPRP	0.0651
RRIRSRPPRLPRPRPRPQYQPRP	-0.136
RRIRGRPPRLPRPRPRPHAWPRP	0.595
RRIRGRPPRLPRPRPRPQQEPRP	0.0132
RRIRIRPPRLPRPRPRPIVEPRP	0.0786
RRIRDRPPRLPRPRPRPKIKPRP	2.05
RRIRNRPPRLPRPRPRPRYSPRP	-0.309
RRIRIRPPRLPRPRPRPFNFPRP	-0.31
RRIRKRPPRLPRPRPRPAVKPRP	-0.104
RRIRYRPPRLPRPRPRPSWWPRP	-0.511
RRIRMRPPRLPRPRPRPKKLPRP	0.354
RRIRQRPPRLPRPRPRPCGSPRP	-0.000687

Sequence	shrunken log2 fold change
RRIRKRPPRLPRPRPRPGFVPRP	0.259
RRIRYRPPRLPRPRPRPVCDPRP	-0.623
RRIRYRPPRLPRPRPRPCNCPRP	-0.0018
RRIRFRPPRLPRPRPRPLSRPRP	-0.102
RRIRERPPRLPRPRPRPTPHPRP	0.308
RRIRVRPPRLPRPRPRPRKIPRP	-0.0978
RRIRMRPPRLPRPRPRPKMIPRP	-0.0167
RRIRHRPPRLPRPRPRPLPAPRP	0.192
RRIRARPPRLPRPRPRPWFHPRP	-0.301
RRIRVRPPRLPRPRPRPFVFPRP	-0.0359
RRIRRRPPRLPRPRPRPLHMPRP	0.0287
RRIRCRPPRLPRPRPRPICNPRP	-0.579
RRIRTRPPRLPRPRPRPPEKPRP	0.0774
RRIRGRPPRLPRPRPRPGYMPRP	-0.0736
RRIRRRPPRLPRPRPRPAGWPRP	0.593
RRIRNRPPRLPRPRPRPTWFPRP	0.415
RRIRERPPRLPRPRPRPLTWPRP	3.04
RRIRNRPPRLPRPRPRPDPAPRP	0.172
RRIRFRPPRLPRPRPRPVCDPRP	-0.255
RRIRYRPPRLPRPRPRPMGMPRP	-0.188
RRIRQRPPRLPRPRPRPEHTPRP	-0.0628
RRIRMRPPRLPRPRPRPHKDPRP	-0.0811
RRIRERPPRLPRPRPRPDERPRP	0.109
RRIRARPPRLPRPRPRPVYKPRP	-0.35
RRIRGRPPRLPRPRPRPVNFPRP	0.44

Sequence	shrunken log2 fold change
RRIRMRPPRLPRPRPRPIIGPRP	-0.00776
RRIRTRPPRLPRPRPRPMQMPRP	0.39
RRIRKRPPRLPRPRPRPGACPRP	0.237
RRIRYRPPRLPRPRPRPTKRPRP	-0.028
RRIRRRPPRLPRPRPRPDIFPRP	0.0756
RRIRCRPPRLPRPRPRPENGPRP	-0.0135
RRIRARPPRLPRPRPRPWGAPRP	0.401
RRIRPRPPRLPRPRPRPTKNPRP	0.0886
RRIRTRPPRLPRPRPRPAQMPRP	0.0652
RRIRCRPPRLPRPRPRPSHSPRP	-0.392
RRIRSRPPRLPRPRPRPSVVPRP	-0.219
RRIRARPPRLPRPRPRPWLIPRP	0.111
RRIRWRPPRLPRPRPRPPSCPRP	0.0112
RRIRERPPRLPRPRPRPYPCPRP	-0.00884
RRIRDRPPRLPRPRPRPPGIPRP	0.233
RRIRTRPPRLPRPRPRPRNRPRP	-0.0827
RRIRWRPPRLPRPRPRPANTPRP	-0.0364
RRIRTRPPRLPRPRPRPVEKPRP	-0.016
RRIRGRPPRLPRPRPRPIFFPRP	0.237
RRIRTRPPRLPRPRPRPEHKPRP	-0.0645
RRIRLRPPRLPRPRPRPPVPPRP	0.374
RRIRNRPPRLPRPRPRPDMHPRP	-0.0698
RRIRKRPPRLPRPRPRPCISPRP	0.0183
RRIRIRPPRLPRPRPRPLKQPRP	0.0465
RRIRVRPPRLPRPRPRPDCTPRP	-0.068

Sequence	shrunken log2 fold change
RRIRARPPRLPRPRPRPIGLPRP	0.076
RRIRHRPPRLPRPRPRPTRGPRP	0.0497
RRIRWRPPRLPRPRPRPRWNPRP	-0.0693
RRIRIRPPRLPRPRPRPKDVPRP	-0.141
RRIRDRPPRLPRPRPRPCCDPRP	0.655
RRIRCRPPRLPRPRPRPAKWPRP	0.235
RRIRRRPPRLPRPRPRPTYMPRP	-0.242
RRIRTRPPRLPRPRPRPSRGPRP	0.178
RRIRSRPPRLPRPRPRPFWKPRP	-0.125
RRIRCRPPRLPRPRPRPCWFPRP	-0.386
RRIRMRPPRLPRPRPRPDFHPRP	-0.129
RRIRPRPPRLPRPRPRPSHGPRP	0.108
RRIRRRPPRLPRPRPRPQFEPRP	0.16
RRIRGRPPRLPRPRPRPQCNPRP	0.203
RRIRWRPPRLPRPRPRPCMHPRP	-0.0533
RRIRWRPPRLPRPRPRPSPNPRP	0.106
RRIRIRPPRLPRPRPRPMGQPRP	-0.077
RRIRDRPPRLPRPRPRPEKVPRP	-0.00893
RRIRPRPPRLPRPRPRPTQAPRP	0.0364
RRIRHRPPRLPRPRPRPVRMPRP	0.246
RRIRCRPPRLPRPRPRPKNIPRP	-0.607
RRIRNRPPRLPRPRPRPKHYPRP	-0.399
RRIRDRPPRLPRPRPRPAWDPRP	0.4
RRIRIRPPRLPRPRPRPYKWPRP	-0.424
RRIRMRPPRLPRPRPRPQRVPRP	1.27

Sequence	shrunken log2 fold change
RRIRGRPPRLPRPRPRPMGSPRP	-0.0284
RRIRMRPPRLPRPRPRPAKPPRP	0.453
RRIRCRPPRLPRPRPRPWRPPRP	0.0893
RRIRGRPPRLPRPRPRPTNRPRP	0.258
RRIRARPPRLPRPRPRPLYFPRP	-0.282
RRIRRRPPRLPRPRPRPKHPPRP	0.294
RRIRLRPPRLPRPRPRPMWDPRP	0.0295
RRIRLRPPRLPRPRPRPMQFPRP	0.179
RRIRYRPPRLPRPRPRPDSKPRP	-0.352
RRIRIRPPRLPRPRPRPGPAPRP	0.383
RRIRERPPRLPRPRPRPTKNPRP	-0.187
RRIRKRPPRLPRPRPRPDKKPRP	-0.117
RRIRARPPRLPRPRPRPGDIPRP	-0.0868
RRIRKRPPRLPRPRPRPGKNPRP	-0.181
RRIRVRPPRLPRPRPRPTKQPRP	-0.0322
RRIRCRPPRLPRPRPRPQSLPRP	0.0939
RRIRSRPPRLPRPRPRPNDEPRP	-0.276
RRIRIRPPRLPRPRPRPWHHPRP	-0.126
RRIRMRPPRLPRPRPRPRAEPRP	1.73
RRIRYRPPRLPRPRPRPPPSPRP	0.936
RRIRYRPPRLPRPRPRPLIPPRP	-0.671
RRIRQRPPRLPRPRPRPFVGPRP	-0.237
RRIRYRPPRLPRPRPRPRMKPRP	-0.241
RRIRCRPPRLPRPRPRPCYDPRP	-0.316
RRIRDRPPRLPRPRPRPYSLPRP	-0.017
